Measurements: the nanobody polyreactivity screen of Harvey et al. (2022)

experiment: yeast display, Sf9 membrane polyspecificity reagent, FACS + sequencing; frameworks hold sequencing errors
Method in brief: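 Galactose-induced (36–48 hours) yeast carrying a synthetic nanobody display library were exposed to 10% biotinylated, detergent-solubilized Sf9 membrane reagent at 4 °C for 1 hour. FACS followed streptavidin microbead enrichment, using low and high (top ~1%) gates for expression (anti-HA) and reagent binding (streptavidin). Colony PCR, MiSeq 2 × 250 sequencing and CDR-length filtering followed. Labels for polyreactivity reflect the gate of origin.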

Sequence	polyreactivity (PSR sort gate)
QVQLVESGGGLVQAGGSLRLSCAASGSTFNTNAMAWYRHAPGKERELVAAISWSSTRTYYADSVKGRFTISRDNAKNTVYLQMNSLKPEDTAVYYCAAATYQSRYFQRFDYWGQGTQVTVSS	high polyreactivity
QVQLVESGGGLVQAGGSLRLSCAASGSTFNTNTMGWYRQAPGKERELVAAISQSGTRTYYANSVKGRFTISRDNAKYTVYFQMNSLKPEDTAVYYCSADRQRYTSSSRKGLGYWGQGTQVTVSS	high polyreactivity
QVQLVESGGGLVQAGGSLRLSCAASGSTFNVYSMGWYRQAPGKERELVAAIDTGDGSTFYADSVKGRFTISRDNAKNTVYLQMNSLKPEDTAVYYCAAEFWAIVDGDYCGQGTQVTVSS	high polyreactivity
QVQLVESGGGLVQAGGSLRLSCAASGSTFNWYAMGWYRQAPGKERELVASIRISGGSTYYADSVKGRFTISRDNAKNTVYLQMNSLKPEDTAVYYCNAKLFIRWFTYDYWGQGTQVTVSS	low polyreactivity
QVQLVESGGGLVQAGGSLRLSCAASGSTFNYNAMGWYRPAPRKERELVAAITWNSGSTYYADSVKGRFTISRDNAKNTVYLQMNSLKQEDTAVYSCAADFTIPYWDAKFDYWGQGTQVTVSS	low polyreactivity
QVQLVESGGGLVQAGGSLRLSCAASGSTFNYNAMGWYRQAPGKERELVAAITYSGSSTYYADSVKGRFTISRDNAKNTVYLQMNSLKPEDTAVYYCAKDWYYLRRNYDYWGQGTQVTVSS	high polyreactivity
QVQLVESGGGLVQAGGSLRLSCAASGSTFNYYAMGWYRQAPGKERELVAAISSRSSRTFYADSVKGRFTISRDNEKNTVYLQMNSLKPEDTAVYYCAVKKRAPDGDYWGQGTQVTVSS	high polyreactivity
QVQLVESGGGLVQAGGSLRLSCAASGSTFNYYDMGWYRQAPGKERELVATITSRGRSTYYADSVKGRFTISRDNAKNTVYLQMNSLKPVDTAVYYCAADWRAYIRRAAYSPFDYWGQGTQVTVSS	low polyreactivity
QVQLVESGGGLVQAGGSLRLSCAASGSTFNYYTMGWYRQEPGKETELVAAISGRVSITYYADSVKGRFTISRDNAKNTVYLQMISLKPEDTAVYYCAAGPGYVRYPRSGVWYVTLYDYWGQGSQVTVSS	high polyreactivity
QVQLVESGGGLVQAGGSLRLSCAASGSTFPDYAMGWYRQAPGKERELVAAISGDSDDTYYADSVKGRFTISRDNAKNTVYLQMNSLKPEDTAVYYCAARRGRAVYSVAYDYWGQATQVTVSS	high polyreactivity
QVQLVESGGGLVQAGGSLRLSCAASGSTFPDYAMGWYRQAPGKERELVAAISRRGVRTYYADSVKGRFTISRDNAKNTVYLQMNSLKPEDTAVYYCAAPSLLSGSDMDYWGQGTQVTVSS	high polyreactivity
QVQLVESGGGLVQAGGSLRLSCAASGSTFPDYAMGWYRQAPGKERELVAAISWSGGSTYYADSVKGRFTISRDNAKNTVYLQMNSLKPEDTAVYYCAAGYSPPKPYSGGYYYWGQGTQVTVSS	low polyreactivity
QVQLVESGGGLVQAGGSLRLSCAASGSTFPEYAMGWYRQAPGKERELVATISWSGGSTDYADSVKGRITISRDNAKNTVYLQMNSLKPEDTAVYYCNKELIPHFDTRESWGQGTQVSVSS	low polyreactivity
QVQLVESGGGLVQAGGSLRLSCAASGSTFPFYAMGWYRQAPGKERELVAAIPSGGSTYADSVKGRFTISRDNAKNTVYLQMNSLKPEDTAVYYCAASWPRWWRFGYWGQGTQVTVSS	low polyreactivity
QVQLVESGGGLVQAGGSLRLSCAASGSTFPFYAMGWYRQAPGKERELVAAITSGGSTYADSVKGRFTISRDNAKNTVYLQMNSLKPEDTAVYYCAASWPRWCRFGYWGQGTQVTVSS	low polyreactivity
QVQLVESGGGLVQAGGSLRLSCAASGSTFPFYAMGWYRQAPGKERELVATISSDGSTNYADSVKGRFTISRDNAKNTVYLQMNSLKPEDTAVYYCNALARWWAYYDYGYWGQGTQVTVSS	low polyreactivity
QVQLVESGGGLVQAGGSLRLSCAASGSTFPGNAMGWYRPAPGKERELVARINDGADTNYADSVKGRFTISRDNAKNTVYLQMNSLKPEDTAVYYCAKPYYDGRTHFDSWGQGTQVTVSS	low polyreactivity
